This note sets out measurements from article doi:10.1101/2025.08.18.670068 (2025).

Assay in all cases: SPR
(In general: In SPR one partner is held on a chip, and binding of the other changes the refractive index at the surface.)

For assay [1], the target named is soluble CCR8 analogue BM1.
Assay [2] deals with soluble CCR8 analogue BM3.
In assay [3] the target is soluble CCR8 analogue BM5.
The target of assay [4] is soluble CCR8 analogue BM6.
The target in assay [5] is soluble CCR8 analogue BM7.

B1: mAb1 in full length human IgG1 format (antibody, V domains shown)
VH: QSVEESGGRLVTPGTPLTLTCTVSGFSLSNYAMIWVRQAPGEGLEWVGTISLGGYTYYANWAKGRFTISKTSTTVDLKISSPTTEDTATYFCARARWSTDSAIYTYAFDPWGPGTLVTVSS
VL: AYDMTQTPASVEVAVGGTVTIKCQASQSISSYLSWYQQKPGQRPELLIYKASTLASGVSSRFKGSGSGTQFTLTISDLEAADAATYYCQQGYTSSNIDNIFGGGTEVVVK
Broadly, the Kd is the concentration at which binding is half-saturated. A high value points to a looser complex. B1: the Kd in assay [1] is 267 nM; in assay [2], 154 nM; in assay [3] it was 629 nM; in assay [4], 552 nM; in assay [5], 252 nM.
